{"source": "patent US8084434", "about": "(UNIVERSITY OF MARYLAND, dated 2011)", "biological_target": "T1, Flag.RUNX2(P409A) (Homo sapiens (Human), UniProt Q13950 20-521)", "T1 construct": "also called mutant RUNX2; RUNX2 mutant", "T1 sequence (Q13950 other isoform, or with tags, fused parts or gaps P409A P409A)": "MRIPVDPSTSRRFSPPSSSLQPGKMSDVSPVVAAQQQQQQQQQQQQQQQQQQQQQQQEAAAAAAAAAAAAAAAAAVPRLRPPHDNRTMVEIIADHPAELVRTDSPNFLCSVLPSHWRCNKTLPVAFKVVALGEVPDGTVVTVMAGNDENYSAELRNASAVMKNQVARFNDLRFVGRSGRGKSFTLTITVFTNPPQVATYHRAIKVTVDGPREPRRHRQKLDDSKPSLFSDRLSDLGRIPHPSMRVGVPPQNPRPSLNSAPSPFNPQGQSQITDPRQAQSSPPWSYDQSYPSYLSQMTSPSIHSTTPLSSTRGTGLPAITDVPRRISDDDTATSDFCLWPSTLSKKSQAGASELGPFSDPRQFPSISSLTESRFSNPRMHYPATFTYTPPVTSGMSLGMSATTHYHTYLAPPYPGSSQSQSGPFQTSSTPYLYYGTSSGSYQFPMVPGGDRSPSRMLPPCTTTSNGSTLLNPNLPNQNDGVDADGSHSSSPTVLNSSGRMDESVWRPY", "assay": "co-immunoprecipitation, Flag.RUNX2(P409A) and HA.YAP", "protocol": "Mutation of the first proline to an alanine completely abolished transcriptional activity. We reasoned that if YAP was directly interacting with RUNX2, a mutation of the first proline to an alanine in RUNX2 would reduce YAP binding and not affect the repression of the p21 CIP1 promoter. The mutant RUNX2, designated RUNX2 (P409A), was generated and its ability to interact with YAP was assessed. […] We expected that the mutant RUNX2 would retain its ability to bind DNA since the P409A mutation was downstream of the Runt DNA binding domain (amino acids 50-177). To measure RUNX2(P409A) DNA binding, DNA precipitation assays using the wild type 20-mer, double-stranded oligonucleotide from the p21 CIP1 promoter site A were performed using nuclear lysates from HEK293 cells transfected with two mutant Flag.RUNX2(P409A) clones. Both RUNX2(P409A) mutant clones retained DNA-binding activity. After verification of DNA binding, the ability of the RUNX2 mutant protein to repress p21CIP1 promoter activity was determined. NIH3T3 cells were transfected with either RUNX2 or RUNX2(P409A) and luciferase activity was measured. Both mutant RUNX2(P409A) clones and the wild-type RUNX2 were strong repressors of the p21CIP1 promoter. However, HA.YAP was unable to relieve p21 CIP1 promoter repression by the mutant Flag.RUNX2(P409A). […]"}
{"binder": "HA.YAP (other, not shown: small tags and cut ends, Expressed in HEK293 cells and assayed in nuclear lysates; also called HA-tagged YAP; YAP65) MDPGQQPPPQPAPQGQGQPPSQPPQGQGPPSGPGQPAPAATQAAPQAPPAGHQIVHVRGDSETDLEALFNAVMNPKTANVPQTVPMRLRKLPDSFFKPPEPKSHSRQASTDAGTAGALTPQHVRAHSSPASLQLGAVSPGTLTPTGVVSGPAATPTAQHLRQSSFEIPDDVPLPAGWEMAKTSSGQRYFLNHIDQTTTWQDPRKAMLSQMNVTAPTSPPVQQNMMNSASAMNQRISQSAPVKQPPPLAPQSPQGGVMGGSNSNQQQQMRLQQLQMEKERLRLKQQELLRQVRPQELALRSQLPTLEQDGGTQNPVSSPGMSQELRTMTTNSSDPFLNSGTYHSRDESTDSGLSMSSYSVPRTPDDFLNSVDEMDTGDTINQSTLPSQQNRFPDYLEAIPGTNVDLGTLEGDGMNIEGEELMPSLQEALSSDILNDMESVLAATKLDKESFLTWL", "values": [{"measurement": "binding result", "result": "no binding"}]}
